These results are taken from paper PMC7429351, “Comparison of ligand binding and conformational stability of human calmodulin with its homolog from the malaria parasite Plasmodium falciparum” (FASEB BioAdvances, 2020).

Values joined by “and” are separate entries in the source; they are usually repeats but may differ in a detail not shown here. Equal entries are not always repeated. Where two headings read alike, the source gives them in different places.

Series [1] can be described thus: Differential scanning fluorimetry (nanoDSF, intrinsic fluorescence). As to conditions: DSF, 5°C/min, C-domain Tyr fluorescence. The format is physicochemical. As to the method:
Denaturation curves were determined by detecting intrinsic protein fluorescence as a function of temperature using the Prometheus instrument (NanoTemper Technologies). Protein samples at 1.0‐1.5 mg/mL were heated at a scan rate of 5°C/min up to 110°C in the standard assay buffer using the designated set and capillaries. Data analysis was performed with the built‐in analysis software.
Background: DSF heats the sample and reads unfolding from a dye or from intrinsic fluorescence.

The target in a further series is T1, human MLCK (Homo sapiens, UniProt Q15746).
T1 construct: GST; purchased Sigma M9197
The series is described as follows: MLCK activation by CaM (ADP-Glow). The format is biochemical. As to conditions: 30 minutes, room temperature. The method, then: Myosin light chain kinase (MLCK) was purchased from Sigma (M9197, human, recombinant, GST‐tagged). Enzyme activity was measured in standard buffer complemented with 0.5 mmol/L CaCl2, 2.5 mmol/L MgCl2, and 0.1 mg/mL BSA. When measuring activation by CaM, 20 μL reaction mixtures contained 3.5 ng/μL MLCK, 0.1 mg/mL MLCK substrate (Sigma SCP0196), 50 μmol/L ATP, 0.5 mmol/L DTT, and various amounts of CaM. Samples were incubated for 30 minutes at room temperature then ADP formed during the kinase reaction was detected using the ADP‐Glow Kinase Assay kit (Promega) according to the manufacturer's instructions. Luminescence values proportional to ADP concentration were normalized to maximal intensities obtained at saturating CaM concentrations.
(In ADP-Glo the light output rises with the ADP produced.)

The next series has as its system bovine PDE. The series is described as follows: PDE activation by CaM. As to conditions: 150 nmol/L CaM, 1 mmol/L CaCl2. The format is biochemical.
In a further series the target is T2, bovine brain CaN (Bos taurus, UniProt P48452).
T2 construct: purchased Promega V6361; host or cells: bovine brain
The series is described as follows: Calcineurin activation by CaM. As to conditions: PNPP substrate, 28°C. The format is biochemical. As to the method:
(§1) Calcineurin (PPase‐2B, CaN) was purchased from Promega (V6361, isolated from bovine brain). Dephosphorylation of the substrate p‐nitrophenyl phosphate (PNPP, Sigma, 1040) was followed by monitoring the increase in absorbance at 405 nm using a Perkin Elmer EnSpire microplate reader. The CaN activity was assayed by measuring the initial velocities at 28°C in 50 mmol/L Tris, pH 7.5 containing 0.001 unit/μL CaN, 0.1 mg/mL BSA, 20 mmol/L PNPP, 1 mmol/L NiCl2, and various amounts of CaM to determine dose‐response curves for CaN activation by CaM.

For series [2], the target named is T3, human CaM (Homo sapiens, UniProt P0DP23).
T3 construct: properties of the whole protein can be explored with differential scanning calorimetry; made in house; host or cells: E coli
The series is described as follows: ANS binding fluorescence, human CaM. As to conditions: 10 μmol/L ANS.

For series [3], the target named is T4, Pf CaM (Plasmodium falciparum, UniProt P62203).
T4 construct: properties of the whole protein can be explored with differential scanning calorimetry; made in house; host or cells: E coli
The series is described as follows: ANS binding fluorescence, Pf CaM. The conditions noted are these: 10 μmol/L ANS. As to the method:
(§2) Spectra were collected using a Jobin Yvon Fluoromax‐3 spectrofluorometer at 25°C in the standard assay buffer containing either 1 mmol/L EGTA or 1 mmol/L CaCl2. Spectra were recorded three times, averaged, and corrected by subtracting the appropriate blank. Tyrosine fluorescence was excited at 274 nm, the emission was detected between 285 and 370 nm, and the intensities were recorded at 303 nm. In ANS binding assays, 10 μmol/L of ANS (8‐anilinonaphtalene‐1‐sulfonic acid, Fluka, 10417) was excited at 388 nm in the presence of 2 μmol/L CaM in standard assay buffer, and the emission was monitored from 410 to 600 nm. In experiments with dansyl‐labeled CaM, the fluorophore was excited at 340 nm, and the emission was monitored from 400 to 600 nm.

Series [4] addresses T4, Pf CaM. The series is described as follows: biochemical. The format is binding. The conditions noted are these: ITC. An excerpt: (§3) Titration curves were fitted with the models provided by the built‐in Origin software (MicroCal.).
A further series deals with T5, dansyl-labeled Pf CaM (Plasmodium falciparum, UniProt P62203).
T5 construct: properties of the whole protein can be explored with differential scanning calorimetry; made in house; host or cells: E coli
The series is described as follows: Dansyl-CaM fluorescence titration, Pf CaM. The format is binding. The conditions noted are these: hyperbolic fit. The method, then:
as §2

Series [5] concerns the target T6, human CaM (dansyl-labeled) (Homo sapiens, UniProt P0DP23).
T6 construct: properties of the whole protein can be explored with differential scanning calorimetry; made in house; host or cells: E coli
The series is described as follows: Dansyl-CaM fluorescence titration, human CaM. The format is binding. The conditions noted are these: hyperbolic fit. As to the method:
as §2

Series [6] has as its target T3, human CaM. The series is described as follows: Calcineurin activity assay, inhibition of human CaM function. The format is biochemical. The method, then: as §1
The target of series [7] is T4, Pf CaM. The series is described as follows: Calcineurin activity assay, inhibition of Pf CaM function. The format is biochemical. The conditions noted are these: for inhibition of Pf CaM function in CaN activity assay: screen of selected Malaria Box compounds. The method, then: as §1
For series [8], the system named is 3D7 chloroquine sensitive but sulfadoxine resistant strain of P falciparum. The arrangement: method as in earlier work. As to conditions: blood stage, 3D7 strain; ref MMV website (https://www.mmv.org/mmv-open/malaria-box/malaria-box-supporting-information); cited from earlier work.
For series [9], the target named is T3, human CaM. The series is described as follows: Isothermal titration calorimetry, ligand titrated with human CaCaM. The format is binding. The conditions noted are these: ITC, 25°C, 1 mmol/L CaCl2, one set of sites model.
Text: as §3
In general terms: Isothermal titration calorimetry measures the heat released or taken up as one component is titrated into another.

Series [10] can be described thus: CD melting curves at 222 nm. The format is physicochemical. As to conditions: CD 222 nm. The method, then:
CD spectra were recorded on Jasco J‐720 and J‐810 spectropolarimeters (Jasco) using quartz cuvettes with pathlengths of 1 mm in the far‐UV and 1 cm in the near‐UV range. Samples were measured in the standard assay buffer complemented with 1 mmol/L EGTA or CaCl2 at a protein concentration of 5‐8 μmol/L in the far‐UV and 210 μmol/L in the near‐UV. Spectra were recorded at least three times at a scan speed of 20 nm/min using a bandwidth and response time of 1 nm and 4 seconds, respectively. Secondary structure content was estimated using the BeStSel method available at http://bestsel.elte.hu. ^24 Melting curves were measured in standard assay buffer or 25 mmol/L phosphate, pH 7.0, in the presence of 1 mmol/L EGTA or saturating levels of CaCl2 monitoring the ellipticity at 222 nm for secondary structure changes or at 280 nm to monitor the signal of Tyr residues. A heating rate of 1 or 2°C/min was used. In a well‐sealed 1 mm‐cell, heating up to 110°C was possible.

The nature of series [11]: Differential scanning calorimetry thermal denaturation. The format is physicochemical. As to conditions: DSC; for T m1 / ΔH1 / ΔHv1: first transition; for T m1 / T m2: 1°C/min; for ΔH1 / ΔH2: calorimetric enthalpy; for ΔHv1 / ΔHv2: van't Hoff enthalpy; for T m2 / ΔH2 / ΔHv2: second transition. As to the method: Thermograms were measured in the standard assay buffer complemented with 1 mmol/L EGTA or CaCl2 using a VP‐DSC microcalorimeter (MicroCal). Protein samples at 0.75 mg/mL were heated at a scan rate of 1°C/min with no feedback. Data analysis was performed with the Origin software provided by MicroCal.

T2 sequence (P63099 2-170 partner limits assumed, other chains not shown): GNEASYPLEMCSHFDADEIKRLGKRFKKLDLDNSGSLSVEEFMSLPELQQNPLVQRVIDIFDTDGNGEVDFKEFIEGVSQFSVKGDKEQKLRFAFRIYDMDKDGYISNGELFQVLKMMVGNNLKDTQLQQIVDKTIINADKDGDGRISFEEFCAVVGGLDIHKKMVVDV
T1 sequence (Q15746 1425-1771 limits assumed): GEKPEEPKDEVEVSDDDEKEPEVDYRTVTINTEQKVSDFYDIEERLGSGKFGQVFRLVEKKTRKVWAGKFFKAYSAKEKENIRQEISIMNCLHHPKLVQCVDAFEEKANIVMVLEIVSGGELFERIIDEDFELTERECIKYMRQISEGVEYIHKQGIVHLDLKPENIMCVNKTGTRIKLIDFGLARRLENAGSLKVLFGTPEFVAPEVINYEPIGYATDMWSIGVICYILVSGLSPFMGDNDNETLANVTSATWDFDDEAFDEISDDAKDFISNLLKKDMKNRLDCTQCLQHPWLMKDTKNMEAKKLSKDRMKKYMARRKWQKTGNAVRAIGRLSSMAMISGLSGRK

For “Pf CaM: Recombinant Plasmodium falciparum calmodulin (Uniprot P62203) expressed in E coli”, the T m in series [1] was ~ 51 °C. In addition, the concentration giving a half-maximal response (EC50) (as a rule, the midpoint of the concentration-response curve) with human MLCK is approximately 15 nM. Moreover, the “increase of PDE activity” value in the series on bovine PDE was “the same activation effect”. Further, in the series with bovine brain CaN, the concentration giving a half-maximal response (EC50) was 1 nM and the “activation by CaM (elevation of the basal activity)” value is recorded as 2.1 fold.

Turning to `O=S(=O)(O)c1cccc2cccc(Nc3ccccc3)c12` [ANS, 8‐anilinonaphthalene‐1‐sulfonic acid], the “ANS binding (fluorescence)” value at human CaM [2] (2 μmol/L CaCaM) was “remarkable ANS binding”; at human CaM [2] (2 μmol/L apoprotein) it was “no ANS binding”; on Pf CaM [3] (2 μmol/L CaCaM, compared with human CaCaM), “approximately twofold higher fluorescence intensity”; on Pf CaM [3] (2 μmol/L apoprotein) it was “no ANS binding”.

On to `CC[C@H](C)[C@H](NC(=O)CN)C(=O)NCC(=O)N[C@@H](C)C(=O)N[C@H](C(=O)N[C@@H](CC(C)C)C(=O)N[C@@H](CCCCN)C(=O)N[C@H](C(=O)N[C@@H](CC(C)C)C(=O)N[C@H](C(=O)N[C@H](C(=O)NCC(=O)N[C@@H](CC(C)C)C(=O)N1CCC[C@H]1C(=O)N[C@@H](C)C(=O)N[C@@H](CC(C)C)C(=O)N[C@H](C(=O)N[C@@H](CO)C(=O)N[C@@H](Cc1c[nH]c2ccccc12)C(=O)N[C@H](C(=O)N[C@@H](CCCCN)C(=O)N[C@@H](CCCNC(=N)N)C(=O)N[C@@H](CCCCN)C(=O)N[C@@H](CCCNC(=N)N)C(=O)N[C@@H](CCC(N)=O)C(=O)N[C@@H](CCC(N)=O)C(N)=O)[C@@H](C)CC)[C@@H](C)CC)[C@@H](C)O)[C@@H](C)O)C(C)C)C(C)C` [melittin], for which the Kd on Pf CaM [4] (K d, one set of sites model, upper limit) was less than 30 nM.

`OC(CNCC1CCCO1)Cn1c2ccc(Cl)cc2c2cc(Cl)ccc21` (stereo not shown) [MMV396736]: the Kd at dansyl-labeled Pf CaM came out at 2400 ± 400 nM; in [5], 1800 ± 400 nM; at Pf CaM [4] (25°C, 1 mmol/L CaCl2, one set of sites model, read-out: K d), 2500 ± 200 nM; at human CaM [9], 2500 ± 500 nM. Besides, the IC50 (in general, the midpoint of a concentration-inhibition curve) at human CaM [6] is 1600 ± 760 nM; on Pf CaM [7], 6200 ± 1500 nM. Besides, the “inhibition of Pf CaM function in CaN activity assay” value (shortened to “inhibition of Pf CaM function”) at Pf CaM [7] is “showed inhibitory effect”. In [8], the EC50 is 1060 nM. Moreover, the stoichiometry n at Pf CaM [4] (one set of sites model) was ~ 8 and 7.4 ± 0.1.

With `O=C(Nc1ccc(F)c(Cl)c1)Nc1ccc(Cl)c(Cl)c1` [MMV665953], the “inhibition of Pf CaM function” value on Pf CaM [7] is reported as “showed inhibitory effect”.

In the case of `O=C(NCC(c1ccsc1)N1CCCCCC1)c1ccc(C(F)(F)F)cc1` (stereo not shown) [MMV396672], the “inhibition of Pf CaM function” value at Pf CaM [7] is listed as “showed inhibitory effect”.

For “Pf apoCaM: Plasmodium falciparum calmodulin, Ca2+-free apo form”, the T m in [1] was determined as 51.2 ± 0.6 °C. Besides, the T m in series [10] (in phosphate buffer of low ionic strength) stood at 51.2 ± 0.1 °C. This compound also registered a T m in series [10] (standard assay buffer) of 54.4 ± 0.2 °C. In addition, in series [11], the “T m1” value was 54.7 ± 0.2 °C, the ΔH1 came to 41.2 ± 1.2 kcal/mol, the ΔHv1 worked out at 48.1 ± 0.4 kcal/mol and the “T m2” value worked out at 64.3 ± 0.1 °C. In series [11], this compound gave a ΔH2 of 33.4 ± 1.2 kcal/mol and a ΔHv2 of 53.5 ± 0.6 kcal/mol.

For “Pf CaCaM: Plasmodium falciparum calmodulin, Ca2+‐saturated form”, in [11], the “T m1” value is 92.6 ± 0.1 °C, the ΔH1 is reported as 47.8 ± 0.3 kcal/mol, the ΔHv1 turned out to be 44.5 ± 0.3 kcal/mol and the “T m2” value came out at 125.9 ± 0.2 °C. In series [11], this compound had a ΔH2 of 97.9 ± 2.2 kcal/mol and a ΔHv2 of 65.7 ± 0.8 kcal/mol.

As to `Cl.N=c1n(CCN2CCCCC2)c2ccccc2n1CC(O)c1cccc(Br)c1` (stereo not shown) [MMV665902], the “inhibition of Pf CaM function” value at Pf CaM [7] is “showed inhibitory effect”.
